Target: T1, biotinylated human CLEC9A (human, UniProt Q6UXN8 57-241, limits assumed, biotinylated (site not stated))
T1 construct: Captured on a streptavidin sensor for BLI
Assay: BLI (Octet), biotinylated human CLEC9A on streptavidin sensor, VHH at 50, 100 and 200 nM, global analysis
Experimental: Affinities of the AFN's for Clec9A were determined using the bio-layer interferometry technology on an Octet system (ForteBio).

T1 sequence (Q6UXN8 57-241 limits assumed): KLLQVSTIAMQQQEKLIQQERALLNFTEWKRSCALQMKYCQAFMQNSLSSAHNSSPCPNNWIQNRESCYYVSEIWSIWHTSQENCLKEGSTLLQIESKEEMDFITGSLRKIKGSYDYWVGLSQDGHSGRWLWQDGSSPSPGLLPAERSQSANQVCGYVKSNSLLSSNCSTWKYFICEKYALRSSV

| Kd | koff | kon | Binder |
| --- | --- | --- | --- |
| 1.72 nM | 0.000705 s⁻¹ | 410000 M⁻¹ s⁻¹ | R1CHCL50 (wild type) (VHH, pHEN6C periplasmic expression with C-terminal his6 tag) VHH: QVQLVESGGGLVHPGGSLRLSCAASGSFSSINVMGWYRQAPGKERELVARITNLGLPNYADSVTGRFTISRDNAKNTVYLQMNSLKPEDTAVYYCYLVALKAEYWGQGTQVTVSS |
| 2.7 nM | 0.00118 s⁻¹ | 438000 M⁻¹ s⁻¹ | R1CHCL50_opt4 (E1D-A74S-K83R-Q108L-H13Q-T64K) (VHH, The entry already carries the named substitutions; pHEN6C, C-terminal his6 tag) VHH: DVQLVESGGGLVQPGGSLRLSCAASGSFSSINVMGWYRQAPGKERELVARITNLGLPNYADSVKGRFTISRDNSKNTVYLQMNSLRPEDTAVYYCYLVALKAEYWGQGTLVTVSS |
| 1.29 nM | 0.000635 s⁻¹ | 492000 M⁻¹ s⁻¹ | R1CHCL50_opt1 (E1D-A74S-K83R-Q108L) (VHH, The entry already carries the named substitutions; pHEN6C, C-terminal his6 tag) VHH: DVQLVESGGGLVHPGGSLRLSCAASGSFSSINVMGWYRQAPGKERELVARITNLGLPNYADSVTGRFTISRDNSKNTVYLQMNSLRPEDTAVYYCYLVALKAEYWGQGTLVTVSS |
| 1.15 nM | 0.000723 s⁻¹ | 630000 M⁻¹ s⁻¹ | R1CHCL50_opt2 (E1D-A74S-K83R-Q108L-H13Q) (VHH, The entry already carries the named substitutions; pHEN6C, C-terminal his6 tag) VHH: DVQLVESGGGLVQPGGSLRLSCAASGSFSSINVMGWYRQAPGKERELVARITNLGLPNYADSVTGRFTISRDNSKNTVYLQMNSLRPEDTAVYYCYLVALKAEYWGQGTLVTVSS |
| 1.79 nM | 0.000998 s⁻¹ | 559000 M⁻¹ s⁻¹ | R1CHCL50_opt3 (E1D-A74S-K83R-Q108L-T64K) (VHH, The entry already carries the named substitutions; pHEN6C, C-terminal his6 tag) VHH: DVQLVESGGGLVHPGGSLRLSCAASGSFSSINVMGWYRQAPGKERELVARITNLGLPNYADSVKGRFTISRDNSKNTVYLQMNSLRPEDTAVYYCYLVALKAEYWGQGTLVTVSS |
| 1.74 nM | 0.000725 s⁻¹ | 416000 M⁻¹ s⁻¹ | 3LEC_89 (wild type) (VHH, pHEN6C periplasmic expression with C-terminal his6 tag, no HA tag) VHH: QVQLQESGGGLVQPGGSLRLSCAASGRIFSVNAMGWYRQAPGKQRELVAAITNQGAPTYADSVKGRFTISRDNAGNTVYLQMNSLRPEDTAVYYCKAFTRGDDYWGQGTQVTVSS |

Target: T2, human Clec9A (human, UniProt Q6UXN8 1-241)
T2 construct: Expressed on transfected CHO-K1, HEK293-T and HL116 cells, or native on human dendritic cells; also called hClec9A; C-type lectin domain family 9 member A
Assay: flow cytometry on HEK293-T cells transfected with human Clec9A; His-tagged VHH at 2 µg/ml, anti-His FITC antibody; single concentration
Experimental: The binding characteristics of various VHHs (as described in Example 1) were tested by flow cytometry. HEK293-T cells were transfected with a human Clec9A expression plasmid and stained with the His-tagged VHHs at 2 μg/ml, followed by staining with an anti-His Fitc conjugated antibody. Binding was measured by detecting cellular fluorescence via flow cytometry.

T2 sequence (Q6UXN8 whole entry, the tested form may be a part): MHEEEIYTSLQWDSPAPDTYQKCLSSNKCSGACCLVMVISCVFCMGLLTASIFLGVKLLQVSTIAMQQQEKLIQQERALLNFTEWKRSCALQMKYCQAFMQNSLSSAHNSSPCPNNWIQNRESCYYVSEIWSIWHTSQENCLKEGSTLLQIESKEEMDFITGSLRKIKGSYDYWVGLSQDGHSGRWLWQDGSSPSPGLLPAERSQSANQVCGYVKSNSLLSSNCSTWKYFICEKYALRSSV

| binding result | Binder |
| --- | --- |
| binds | 1LEC 61 (VHH, Entry includes C-terminal AAA-HA-His6 (pMECS)) VHH: QVQLQESGGGLVQPGGSLRLSCAASGGISSINSMGWYRQAPGNQRELVAAITNGGRTVYGDSVKGRFTISRDSAGNTVHLQMDSLRPEDTGVYYCKAFTRGDDYWGQGTQVTVSS |
| binds | 2LEC 89 (VHH, Entry includes C-terminal AAA-HA-His6 (pMECS)) VHH: QVQLQESGGGLVQAGGSLRLSCAASGSIFSINSMGWYRQAPGKQRELVAAITNGGRTTYADSVKGRFTISRDNAKNTVYLQMDSLKPEDTAVYYCKGFSLTDDYWGQGTQVTVSS |
| binds | 2LEC 76 (VHH, Entry includes C-terminal AAA-HA-His6 (pMECS)) VHH: QVQLQESGGGLVQAGESLRLSCVVSGRTFSINAMGWYRQAPGKQRELVAAITNQGRLSYVDSVKGRFTISRDNAANTVYLQMNSLKPEDTAVYYCAAFQSSGIDWGQGTQVTVSS |
| binds | 3LEC 13 (VHH, Entry includes C-terminal AAA-HA-His6 (pMECS)) VHH: QVQLQESGGGLVQPGGSLRLSCAASGRFFRVNAMGWYRQAPGKQRELVAAITNGGQIVYADSVKGRFTISRDSAKNTVYLQMNSLKSEDTAVYYCNAKAAASYVSTVADYWGQGTQVTVSS |
| binds | 3LEC 94 (VHH, Entry includes C-terminal AAA-HA-His6 (pMECS)) VHH: QVQLQESGGGSVQAGGSLRLSCAASGRTFSSYAMAWFRQAPGMERELVAAISWSGGSTYYADSVKGRFTISRDNAENTVYLQMNSLKPEDTAVYYCAAEAEGSGREGNFYERSWYQGQGTQVTVSS |
| binds | 3LEC 4 (VHH, Entry includes C-terminal AAA-HA-His6 (pMECS)) VHH: QVQLQESGGGLVQPGGSLRLSCAASGSFFSINAMGWYRQAPGKQRELVAAITNQGRIAYADSVKGRFTISRDNAKNTVYLQMNSLKPEDTAVYYCGRPGWDYWGQGTQVTVSS |
| binds | 2LEC 62 (VHH, Entry includes C-terminal AAA-HA-His6 (pMECS)) VHH: QVQLQESGGGLVQPGGSLRLSCAAYGSIFSINAMGWYRQAPGKERELVAGITTQGRITYGNSVRGRFTISGDNAKNTVYLQMKSLKPEDTAVYYCSAWGVKTGPESGSGTLEGQGTQVTVSS |
| binds | 2LEC 88 (VHH, Entry includes C-terminal AAA-HA-His6 (pMECS)) VHH: QVQLQESGGGLVQPGGSLRLSCTASGSFFSINAMGWYRQAPGNQRELVAAITNGGRIAYTDSVKGRFTISNDNAKNTVYLQMNSLKPEDTDVYYCNAKAIPIYGSTAEDYWGQGTQVTVSS |
| binds | 2LEC 95 (VHH, Entry includes C-terminal AAA-HA-His tag (pMECS); only five His are printed in the text) VHH: QVQLQESGGGLVQAGGSLRLSCEASGRTFSTYAMAWFRQAPGKERDLVAAISWSGGSTEYHDSVKGRFTISRDNTKNTVYLQMNSLKAEDTAVYYCAAEVEGSGREGNFYGASWYPGQGTQVTVSS |
| binds | 2LEC 61 (VHH, Entry includes C-terminal AAA-HA-His6 (pMECS)) VHH: QVQLQESGGGLVQPGGSLRLSCAASGSIVSINSMGWYRQAPGKQRELVAAITDQGRTTYADSVKGRFTISRDDAKNKNTVYLQMNSLKAEDTAVYACKAFGRFDDYWGQGTQVTVSS |
| binds | 3LEC 6 (VHH, Entry includes C-terminal AAA-HA-His6 (pMECS)) VHH: QVQLQESGGGLVQAGGSLRLSCVASVNIGSLNSMVWYRQSPGKQRELVAGITGSGQITYANSVRGRFTVSRDIAKSTAYLQMNTLKPEDTAVYYCAAYDRSATAYWGQGTQVTVSS |
| binds | 3LEC 15 (VHH, Entry includes C-terminal AAA-HA-His6 (pMECS)) VHH: QVQLQESGGGLVQAGGSLRLSCAASGSVFSINAMGWYRQAPEKQRELVAAITTQGRTTYEDSVKGRFTISRDGAQNTVYLQMDSLKPEDTAVYYCKAWTAKDDYWGKGTQVTVSS |
| binds | 3LEC 22 (VHH, Entry includes C-terminal AAA-HA-His6 (pMECS)) VHH: QVQLQESGGGRVQPGGSLRLSCAAIGSIFEINSIGWYRQAPGKQRELVAAITSGGITNYANSVQGRSTISRDNVNNTVYLQMNSLKPEDSAVYYCKGFTGWGKEDYWGQGTQVTVSS |

Second part, the binder before the results:

| Binder | binding result |
| --- | --- |
| 3LEC 62 (VHH, Entry includes C-terminal AAA-HA-His6 (pMECS)) VHH: QVQLQESGGGLVQPGGSLRLSCAASGRIGSINSMGWYRQAPGKQREMVAAITNGGATVYADSVKGRFTISRDNAGNTVDLHMNSLRPEDSAVYYCTIWAADYQQYWGQGTQVTVSS | binds |
| 2LEC 60 (VHH, Entry includes C-terminal AAA-HA-His6 (pMECS)) VHH: QVQLQESGGGLVQPGGSLRLSCAASGRFFRVNAMGWYRQVPGKQRELVAAITNGGQIAYADSVKGRFTISRDSAKNTVYLQMNSLKSEDTDVYYCNAKAAATHLSTVADYWGQGTQVTVSS | binds |
| 1LEC 27 (VHH, Entry includes C-terminal AAA-HA-His6 (pMECS)) VHH: QVQLQESGGGLVQAGESLRLSCAASGSSDSINAMGWYRQAPGKQRELVAAITSGGRSTYIDSAKGRATISRDNARNTAYLQMSSLKAEDTAVYYCTIWNRDRQQYWGQGTQVTVSS | binds |
| 1LEC 26 (VHH, Entry includes C-terminal AAA-HA-His6 (pMECS)) VHH: QVQLQESGGGLVQPGGSLRLSCAASGRFFRVNAMGWYRQAPGKQRELVAAITNGGQTAYADSVKGRFTISKESARNTVHLQMSSLKPEDTAVYYCTIWAADYQQYWGQGTQVTVSS | binds |
| 3LEC 23 (VHH, Entry includes C-terminal AAA-HA-His6 (pMECS)) VHH: QVQLQESGGGLVQTGGSLRLSCAASGSIFNINSMGWYRQAPGKQRELVAAITVGGRLAYADSAKGRFTISKESARNTVHLQMSSLKPEDTAVYYCTIWAADYQQYWGQGTQVTVSS | binds |
| 3LEC 27 (VHH, Entry includes C-terminal AAA-HA-His6 (pMECS)) VHH: QVQLQESGGGLVQAGGSLRLSCAASVNIGTLNSMAWYREAPGKQRELVAGITGGGQITYANSVRGRFTVSRDIAKSTAYLQMNTLKPEDTAVYYCAAYDRSATPYWGQGTQVTVSS | binds |
| 1LEC 51 (VHH, Entry includes C-terminal AAA-HA-His6 (pMECS)) VHH: QVQLQESGGGLVQAGGSLRLSCAASVNIDTLNSMAWYRQAPGKQRELVAGITGSGQITYANSVRGRFTVSRDNAKSTVYLQMNTLQPEDTAVYYCAAYDRSSTPYWGQGTQVTVSS | binds |
| 2LEC 83 (VHH, Entry includes C-terminal AAA-HA-His6 (pMECS)) VHH: QVQLQESGGGLVQAGGSLRLSCAASGRTLSSYTIGWYRQAPGKQRELVAAITNQGRRTYADSVKGRFTISRDNAKNTVYLQMDSLKSEDTAVYYCKGFSPTDDFWGQGTQVTVSS | binds |
| 3LEC 9 (VHH, Entry includes C-terminal AAA-HA-His6 (pMECS)) VHH: QVQLQESGGGLVQAGGSLRVSCAASGRTLSNYAVGWWRQAPGKQREFVAAINWSSGGISYSNSAKGRFALSRDNAKNTVYLQMDSLKPEDTAVYYCAAASSVLSGTVDYWGQGTQVTVSS | binds |
| 3LEC 61 (VHH, Entry includes C-terminal AAA-HA-His6 (pMECS)) VHH: QVQLQESGGGLVQAGGSLRVSCAASGRTLSNYAVAWFRQAPGKQREFVAAINWSSGGISYSNAAKGRFALSRDNAKNTVYLQMDSLKPEDTAVYYCAAASSILSGTVDYWGQGTQVTVSS | binds |
| 3LEC 82 (VHH, Entry includes C-terminal AAA-HA-His6 (pMECS)) VHH: QVQLQESGGGLVQAGGSLRLSCAASGRTLSNYAVAWFRQAPGKQRELVAAIWWASGGISYANSAKGRFVLSRDNAKNTVYLQMDSLKPEDTAVYYCAAASSVLSGTADYWGQGTQVTVSS | binds |
| 2LEC 67 (VHH, Entry includes C-terminal AAA-HA-His6 (pMECS)) VHH: QVQLQESGGGLVQAGGSLRLSCAASGRTFPGYVMAWFRQSPGQEREFAAAINWRGGDTYYADSVKGRFTISRDNVKNTVFLQMNSLKPEDTAVYFCAARLTTEYDYAYWGQGTQVTVSS | binds |
